# Test results: publication PMC10914487, “Interaction of human dendritic cell receptor DEC205/CD205 with keratins” (The Journal of Biological Chemistry, 2024)
# B1: CysR∼CTLD3-Fc of DEC205 [human] / K10-T10 (residue G481-G490), SUMO fusion [human] (parent complex)
# chain 1: SGRAANDPFTIVHGNTGKCIKPVYGWIVADDCDETEDKLWKWVSQHRLFHLHSQKCLGLDITKSVNELRMFSCDSSAMLWWKCEHHSLYGAARYRLALKDGHGTAISNASDVWKKGGSEESLCDQPYHEIYTRDGNSYGRPCEFPFLIDGTWHHDCILDEDHSGPWCATTLNYEYDRKWGICLKPENGCEDNWEKNEQFGSCYQFNTQTALSWKEAYVSCQNQGADLLSINSAAELTYLKEKEGIAKIFWIGLNQLYSARGWEWSDHKPLNFLNWDPDRPSAPTIGGSSCARMDAESGLWQSFSCEAQLPYVCRKPLNNTVELTDVWTYSDTRCDAGWLPNNGFCYLLVNESNSWDKAHAKCKAFSSDLISIHSLADVEVVVTKLHNEDIKEEVWIGLKNINIPTLFQWSDGTEVTLTYWDENEPNVPYNKTPNCVSYLGELGQWKVQSCEEKLKYVCKRKGEKLNDASSDKMCPPDEGWKRHGETCYKIYEDEVPFGTNCNLTITSRFEQEYLNDLMKKYDKSLRKYFWTGLRDVDSCGEYNWATVGGRRRAVTFSNWNFLEPASPGGCVAMSTGKSVGKWEVKDCRSFKALSICKKMS
# chain 2: GSSGGGHGGG
# Variants of: B1
# Assay: ELISA; pH 6.0; protein conc 5 µg/ml (highest point of the titration); parent: 3.9; read off a plot
row,response,Variant
1,~2.1 OD 450,chain 2 GSRGGGHGGG [chain 2 S3R]
2,~1.9 OD 450,chain 2 GSSGGGRGGG [chain 2 H7R]
